This data set can be described thus: collision cross section of modified peptide (TIMS, N2, iRT-aligned); higher = larger / more extended gas-phase ion. The method, then: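 1/K0 was aligned run-wise to spiked iRT peptides and converted to CCS in N2 (Mason-Schamp). Values are the mean of 1-3 technical replicates for the most abundant feature at each charge state.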
The mark [1] stands for this setting: charge state: 2, modification: Trimethyl (K).
Setting [2] is: charge state: 3, modification: Trimethyl (K).
The mark [3] stands for this setting: charge state: 2, modification: Citrullination (R).
Where [4] appears, read: charge state: 2, modification: Butyryl.
The mark [5] stands for this setting: charge state: 3, modification: Methyl (R).
The mark [6] stands for this setting: charge state: 2, modification: Formyl.
[7] abbreviates: charge state: 2, modification: Malonyl.
Setting [8] is: charge state: 2, modification: Acetyl (K).
Where [9] appears, read: charge state: 3, modification: Acetyl (K).
[10] abbreviates: charge state: 2, modification: Glutarylation.
Where [11] appears, read: charge state: 3, modification: Glutarylation.
The mark [12] stands for this setting: charge state: 2, modification: HexNAc (ST).
Where [13] appears, read: charge state: 2, modification: Dimethyl (K).
The mark [14] stands for this setting: charge state: 3, modification: Dimethyl (K).
Setting [15] is: charge state: 2, modification: hydroxyisobutyryl.
Setting [16] is: charge state: 2, modification: Nitro (Y).
Setting [17] is: charge state: 2, modification: GlyGly (K).
Where [18] appears, read: charge state: 3, modification: GlyGly (K).
The mark [19] stands for this setting: charge state: 3, modification: Butyryl.
The mark [20] stands for this setting: charge state: 2, modification: Succinyl.
The mark [21] stands for this setting: charge state: 3, modification: Hydroxyproline.

This note sets out measurements from the supplement of paper PMC10598134.

± gives the standard deviation.

For “SKLLFSNTAAQK [_SK(Trimethyl (K))LLFSNTAAQK_]”, the collision cross section is, setting by setting: under setting [1], 395.61 ± 0.017 Å²; under setting [2], 446.07 ± 2.4 Å².
As to “TLQKQSVVYGGK [_TLQK(Propionyl)QSVVYGGK_]”, the collision cross section (charge state: 2, modification: Propionyl) worked out at 393.92 ± 0.49 Å².
IGNSYFKEEK [_IGNSYFK(Biotin)EEK_] displayed a collision cross section (charge state: 2, modification: Biotin) of 398.98 Å².
As to YRGDYDR [_YR(Citrullination (R))GDYDR_], the collision cross section under setting [3] turned out to be 333.6 ± 1.8 Å².
With IGNSYFKEEK [_IGNSYFK(Butyryl)EEK_], the collision cross section under setting [4] was determined as 377.97 ± 0.72 Å².
Consider SRFYSGFNSR [_SR(Methyl (R))FYSGFNSR_], for which the collision cross section was found to be 375.99 ± 1.6 Å² (charge state: 2, modification: Methyl (R)) and 436.64 ± 3.4 Å² under setting [5].
As for ASEALLKQLK [_ASEALLK(Formyl)QLK_], under setting [6], the collision cross section was found to be 369.4 ± 0.89 Å².
“GADFLVTEVENGGSLGSKK [_GADFLVTEVENGGSLGSK(Malonyl)K_]” came in with a collision cross section under setting [7] of 475.75 ± 0.97 Å².
Still for that read-out and setting: then TLQKQSVVYGGK [_TLQK(Malonyl)QSVVYGGK_], with 395.45 ± 1.1 Å².
In the case of “GEVGAGAGPGAQAGPSAKR [_GEVGAGAGPGAQAGPSAK(Acetyl (K))R_]”, the collision cross section reads like this: under setting [8], 420.33 ± 2.6 Å²; under setting [9], 478.86 ± 2.4 Å².
Consider “ANEKTESSSAQQVAVSR [_ANEK(Gluratylation)TESSSAQQVAVSR_]”, for which the collision cross section is reported as 449.31 ± 1.1 Å² under setting [10] and 546.17 ± 2 Å² under setting [11].
“SLIGKVDGTSHVTGK [_SLIGKVDGT(HexNAc (ST))SHVTGK_]” showed a collision cross section under setting [12] of 438.41 Å².
For “IQTKAGEATVK [_IQTK(Trimethyl (K))AGEATVK_]”, the collision cross section under setting [1] was 376.56 ± 1.1 Å² and the collision cross section under setting [2] was 436.23 Å².
As to “VNIGQGSHPQKVK [_VNIGQGSHPQK(Acetyl (K))VK_]”, the collision cross section reads like this: under setting [8], 426.92 ± 2.1 Å²; under setting [9], 478.98 ± 3.2 Å².
Take “GAEKTEVAEPR [_GAEK(Dimethyl (K))TEVAEPR_]”: the collision cross section by setting is: under setting [13], 374.44 ± 1.3 Å²; under setting [14], 439.06 ± 1.6 Å².
Consider “LAEEENKAK [_LAEEENK(hydroxyisobutyryl)AK_]”, for which, under setting [15], the collision cross section was determined as 355.52 ± 0.78 Å².
The substance TATLATLATR [_TATLATLAT(HexNAc (ST))R_] gave a collision cross section under setting [12] of 364.8 ± 0.64 Å².
In the case of “SGATAGAAGGRGK [_SGATAGAAGGR(Citrullination (R))GK_]”, the collision cross section under setting [3] was 331.61 ± 0.28 Å².
With YTAQVDAEEK [_Y(Nitro (Y))TAQVDAEEK_], the collision cross section under setting [16] was found to be 358.81 ± 0.55 Å².
For the substance “GFALVGVGSEASSKK [_GFALVGVGSEASSK(GlyGly (K))K_]”, the collision cross section was 452.76 ± 1.4 Å² under setting [17] and 507.31 ± 14 Å² under setting [18].
Regarding “VGIDTPDIDIHGPEGKLK [_VGIDTPDIDIHGPEGK(Gluratylation)LK_]”, the collision cross section is, setting by setting: under setting [10], 497.76 ± 0.79 Å²; under setting [11], 542.69 ± 1.1 Å².
Consider “SLGEPAAGEGSAKR [_SLGEPAAGEGSAK(GlyGly (K))R_]”, for which the collision cross section is, setting by setting: under setting [17], 411.44 ± 1.9 Å²; under setting [18], 486.35 ± 2.8 Å².
In the case of “SEASSEFAKK [_SEASSEFAK(Trimethyl (K))K_]”, the collision cross section came out at 361.14 ± 0.6 Å² under setting [1] and 431.4 ± 4.5 Å² under setting [2].
In the case of “YEQEHAAIQDKLFQVAK [_YEQEHAAIQDK(Butyryl)LFQVAK_]”, the collision cross section under setting [19] turned out to be 517.33 ± 1 Å².
“VNIGQGSHPQKVK [_VNIGQGSHPQK(Methyl (K))VK_]” displayed a collision cross section (charge state: 2, modification: Methyl (K)) of 409.02 ± 0.54 Å² and a collision cross section (charge state: 3, modification: Methyl (K)) of 465.41 ± 17 Å².
Substance ILDLKTGTVK [_ILDLK(Formyl)TGTVK_] returned a collision cross section under setting [6] of 351.57 ± 1 Å².
Under setting [20], “IVSGKDYNVTANSK [_IVSGK(Succinyl)DYNVTANSK_]” showed a collision cross section of 411.09 ± 0.54 Å².
“KYEEIDNAPEER [_K(GlyGly (K))YEEIDNAPEER_]” registered a collision cross section under setting [17] of 416.44 ± 0.85 Å² and a collision cross section under setting [18] of 499.05 ± 3 Å².
Regarding ASPPLFQSR [_ASPPLFQS(HexNAc (ST))R_], under setting [12], the collision cross section was determined as 363.62 ± 0.64 Å².
For the substance “HGGSGGRGVSVSSAR [_HGGSGGR(Methyl (R))GVSVSSAR_]”, the collision cross section under setting [5] was determined as 477.29 ± 1.5 Å².
For the substance “ATVASSTQKFQDLGVK [_ATVASSTQK(Crotonyl)FQDLGVK_]”, the collision cross section is on record as 452.45 ± 0.83 Å² (charge state: 2, modification: Crotonyl) and 494.25 ± 1.6 Å² (charge state: 3, modification: Crotonyl).
In the case of “ITLSKHQNVQLPR [_ITLSK(GlyGly (K))HQNVQLPR_]”, the collision cross section reads like this: under setting [17], 441.27 Å²; under setting [18], 493.46 ± 2 Å².
On to LDEKENLSAK [_LDEK(Succinyl)ENLSAK_], for which, under setting [20], the collision cross section was 369.34 ± 0.74 Å².
Regarding “DAEAAEATAEGALKAEK [_DAEAAEATAEGALK(Acetyl (K))AEK_]”, the collision cross section is recorded as 451.64 ± 19 Å² under setting [8] and 539.19 ± 1.8 Å² under setting [9].
Turning to “IINEPTAAAIAYGLDKK [_IINEPTAAAIAYGLDK(Dimethyl (K))K_]”, the collision cross section reads like this: under setting [13], 490.46 ± 1.8 Å²; under setting [14], 554.13 ± 0.54 Å².
For the substance YLHDESGLNR [_Y(Nitro (Y))LHDESGLNR_], the collision cross section is, setting by setting: under setting [16], 366.66 ± 0.46 Å²; (charge state: 3, modification: Nitro (Y)) 429.41 ± 1.1 Å².
For the substance “DHLSDKESK [_DHLSDK(hydroxyisobutyryl)ESK_]”, the collision cross section reads like this: under setting [15], 357.61 ± 1.9 Å²; (charge state: 3, modification: hydroxyisobutyryl) 415.53 ± 4.4 Å².
In turn, “RGFGFGGFAISAGK [_R(Citrullination (R))GFGFGGFAISAGK_]” displayed a collision cross section under setting [3] of 391.71 ± 0.23 Å².
“DYSAPVNFISAGLKK [_DYSAPVNFISAGLK(Butyryl)K_]”: the collision cross section under setting [4] was determined as 437.47 ± 5.8 Å² and the collision cross section under setting [19] is listed as 532.64 Å².
Take “LQAAYAGDKADDIQK [_LQAAYAGDK(GlyGly (K))ADDIQK_]”: the collision cross section is, setting by setting: under setting [17], 455.93 ± 1.6 Å²; under setting [18], 505.34 ± 0.35 Å².
With “ATVASSTQKFQDLGVK [_ATVASSTQK(GlyGly (K))FQDLGVK_]”, the collision cross section was determined as 480.31 ± 1.5 Å² under setting [17] and 500.25 ± 0.34 Å² under setting [18].
As to “GEKGDPGLIGPK [_GEKGDP(Hydroxyproline)GLIGPK_]”, the collision cross section reads like this: (charge state: 2, modification: Hydroxyproline) 375.69 ± 1.9 Å²; under setting [21], 437 ± 1.3 Å².
As to “RGVGAGAIAK [_R(Citrullination (R))GVGAGAIAK_]”, the collision cross section under setting [3] is 319.31 Å².
Take “VDVEVPDVSLEGPEGKLK [_VDVEVPDVSLEGPEGK(Dimethyl (K))LK_]”: the collision cross section reads like this: under setting [13], 459.72 ± 1.8 Å²; under setting [14], 548.43 ± 0.78 Å².
Substance ASAISIKLGSSK [_ASAISIK(Formyl)LGSSK_] displayed a collision cross section under setting [6] of 364.8 ± 0.89 Å².
With “IVSGKDYNVTANSK [_IVSGK(Gluratylation)DYNVTANSK_]”, the collision cross section reads like this: under setting [10], 417.68 ± 1.5 Å²; under setting [11], 473.57 ± 2.4 Å².
The substance VNALKNLQVK [_VNALK(Succinyl)NLQVK_] showed a collision cross section under setting [20] of 370.5 ± 1.8 Å².
As to “VQFAPEKPGPQPSAETTR [_VQFAPEKPGP(Hydroxyproline)QPSAETTR_]”, under setting [21], the collision cross section is on record as 515.21 ± 1.2 Å².
